Test results reported in the supplement of paper PMC7877785.
± gives the uncertainty stated by the source.

Experiment: self-splicing fitness, log relative to wild type (ln ratio); higher = more splicing; Tetrahymena group I intron in knt gene, E. coli kanamycin selection, DiMSum; sequences stand for … in CUCUCU…GGAGGGAAAAGUUAUCAGGCAUGCACCUGGUAGCUAGUCUUUAAACCAAUAGAUUGCAUCGGUUUAAAAGGCAAGACCGUCAAAUUGCGGGAAAGGGGUCAACAGCCGUUCAGUACCAAGUCUCAGGGGAAACUUUGAGAUGGCCUUGCAAAGGGUAUGGUAAUAAGCUGACGGACAUGGUCCUAACCACGCAGCCAAGUCCUAAGUCAACAGAUCUUCUGUUGAUAUGGAUGCAGUUCACAGACUAAAUGUCGGUCGGGGAAGAUGUAUUCUUCUCAUAAGAUAUAGUCGGACCUCUCCUUAAUGGGAGCUAGCGGAUGAAGUGAUGCAACACUGGAGCCGCUGGGAACUAAUUUGUAUGCGAAAGUAUAUUGAUUAGUUUUGGAGUACUCGUGGUCG
Method in brief: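 Fitness was computed with DiMSum as the error-weighted combination of replicate fold changes, kanamycin versus none, each normalised to wild type. The library randomised all eight intron nucleotides of the P1ex region, with the intron placed in the knt kanamycin-resistance gene on pET-22b(+) in E. coli BL21(DE3). Six replicate transformations were grown overnight at 37°C or 30°C on LB agar with or without 25 μg/mL kanamycin, plus 100 μg/mL carbenicillin, 50 μM IPTG and 0.2% rhamnose. Pooled colonies were amplicon-sequenced on an Illumina HiSeq 2500.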

Sequence | self-splicing fitness (ln) (30 °C) | self-splicing fitness (ln) (37 °C)
CCGCAGCAAUAUUACGAUAU | -4.2 ± 0.23 | -2.76 ± 0.17
CCGCAGCAAUAUUACGCAUU | -3.28 ± 0.2 | -3.44 ± 0.19
CCGCAGCAAUAUUACGCCAC | -3.33 ± 0.29 | -1.81 ± 0.28
CCGCAGCAAUAUUACGCCAG | -0.493 ± 0.091 | -0.22 ± 0.14
CCGCAGCAAUAUUACGCCGC | -4.21 ± 0.29 | -2.93 ± 0.48
CCGCAGCAAUAUUACGCCUA | -3.92 ± 0.31 | -3.58 ± 0.3
CCGCAGCAAUAUUACGGAAG | -3.05 ± 0.12 | -1.33 ± 0.11
CCGCAGCAAUAUUACGGGUG | -1.22 ± 0.055 | -0.741 ± 0.069
CCGCAGCAAUAUUACGGUGA | -2.46 ± 0.084 | -0.784 ± 0.075
CCGCAGCAAUAUUACGGUUA | -3.25 ± 0.2 | -2.26 ± 0.2
CCGCAGCAAUAUUACGUAGC |  | -0.697 ± 0.22
CCGCAGCAAUAUUACGUAGU | -3.89 ± 0.14 | -2.88 ± 0.18
CCGCAGCAAUAUUACGUAUG | -1.31 ± 0.055 | -0.172 ± 0.068
CCGCAGCAAUAUUACGUAUU | -3.84 ± 0.17 | -2.66 ± 0.15
CCGCAGCAAUAUUACGUCAA | -4.05 ± 0.33 | -3.04 ± 0.27
CCGCAGCAAUAUUACGUGAA | -4.45 ± 0.21 | -1.88 ± 0.16
CCGCAGCAAUAUUACGUGAC | -4.7 ± 0.39 | -1.96 ± 0.26
CCGGAGCAAUAUUACGAAUG | -1.1 ± 0.074 | 0.21 ± 0.097
CCGGAGCAAUAUUACGACGU | -0.341 ± 0.08 | -0.163 ± 0.096
CCGGAGCAAUAUUACGAGUU | -3.65 ± 0.2 | -2.76 ± 0.29
CCGGAGCAAUAUUACGAUAG | -0.959 ± 0.07 | -0.152 ± 0.081
CCGGAGCAAUAUUACGAUGC | -2.69 ± 0.41 | 
CCGGAGCAAUAUUACGCACC | -1.27 ± 0.38 | 
CCGGAGCAAUAUUACGCACU |  | -2.69 ± 0.48
CCGGAGCAAUAUUACGCCAA |  | -2.53 ± 0.26
CCGGAGCAAUAUUACGCCAU |  | -2.18 ± 0.35
CCGGAGCAAUAUUACGCGAG | -2.87 ± 0.3 | -1.79 ± 0.27

Sequence | self-splicing fitness (ln) (30 °C) | self-splicing fitness (ln) (37 °C)
CCGGAGCAAUAUUACGCGUG | -1.09 ± 0.14 | -0.996 ± 0.16
CCGGAGCAAUAUUACGCUGU | -4.31 ± 0.34 | -2.4 ± 0.4
CCGGAGCAAUAUUACGGCGG | -1.49 ± 0.15 | -2.15 ± 0.34
CCGGAGCAAUAUUACGGGAC | -3.11 ± 0.31 | -2.5 ± 0.3
CCGGAGCAAUAUUACGGGCG | -1.36 ± 0.11 | -1 ± 0.15
CCGGAGCAAUAUUACGGUCC | -1.43 ± 0.23 | 
CCGGAGCAAUAUUACGGUGC |  | -1.63 ± 0.45
CCGGAGCAAUAUUACGUCAA | -4.11 ± 0.32 | -3.39 ± 0.26
CCGGAGCAAUAUUACGUCCA | -1.39 ± 0.21 | -1.66 ± 0.32
CCGGAGCAAUAUUACGUGCA | -3.1 ± 0.35 | -2.06 ± 0.29
CCGGAGCAAUAUUACGUUCG | -4.36 ± 0.46 | -1.92 ± 0.46
CCGGAGCAAUAUUACGUUGU | -2.59 ± 0.21 | -2.56 ± 0.26
CCGUAGCAAUAUUACGAAAC | -2.61 ± 0.41 | -0.972 ± 0.29
CCGUAGCAAUAUUACGAAAU | -3.61 ± 0.32 | -2.7 ± 0.34
CCGUAGCAAUAUUACGAACA | -2.12 ± 0.2 | -2.26 ± 0.19
CCGUAGCAAUAUUACGAACC |  | -2.06 ± 0.45
CCGUAGCAAUAUUACGACUA |  | -1.08 ± 0.25
CCGUAGCAAUAUUACGCAAG | -2.09 ± 0.18 | -1.46 ± 0.18
CCGUAGCAAUAUUACGCAGC | -3.54 ± 0.35 | -3.36 ± 0.25
CCGUAGCAAUAUUACGCAGG |  | -2.75 ± 0.48
CCGUAGCAAUAUUACGCCCA |  | -2.54 ± 0.48
CCGUAGCAAUAUUACGCUAC | -4.65 ± 0.38 | -1.76 ± 0.21
CCGUAGCAAUAUUACGCUCA |  | -2.36 ± 0.26
CCGUAGCAAUAUUACGGAAC | -3.54 ± 0.41 | -2.13 ± 0.43
CCGUAGCAAUAUUACGGAUA |  | -2.16 ± 0.28
CCGUAGCAAUAUUACGGAUU |  | -3.01 ± 0.29
